From paper PMC5555194, “Disease-linked mutations in factor H reveal pivotal role of cofactor activity in self-surface–selective regulation of complement activation” (The Journal of Biological Chemistry, 2017)
Where “and” joins values, the source holds several entries; their conditions need not be identical. Equal entries are not always repeated.

B1: I62-CFH (recombinant human complement factor H, variant Ile-62, Tyr-402, Asp-936) (natural protein, UniProt P08603 19-1231, looked up)
chain: EDCNELPPRRNTEILTGSWSDQTYPEGTQAIYKCRPGYRSLGNIIMVCRKGEWVALNPLRKCQKRPCGHPGDTPFGTFTLTGGNVFEYGVKAVYTCNEGYQLLGEINYRECDTDGWTNDIPICEVVKCLPVTAPENGKIVSSAMEPDREYHFGQAVRFVCNSGYKIEGDEEMHCSDDGFWSKEKPKCVEISCKSPDVINGSPISQKIIYKENERFQYKCNMGYEYSERGDAVCTESGWRPLPSCEEKSCDNPYIPNGDYSPLRIKHRTGDEITYQCRNGFYPATRGNTAKCTSTGWIPAPRCTLKPCDYPDIKHGGLYHENMRRPYFPVAVGKYYSYYCDEHFETPSGSYWDHIHCTQDGWSPAVPCLRKCYFPYLENGYNQNYGRKFVQGKSIDVACHPGYALPKAQTTVTCMENGWSPTPRCIRVKTCSKSSIDIENGFISESQYTYALKEKAKYQCKLGYVTADGETSGSITCGKDGWSAQPTCIKSCDIPVFMNARTKNDFTWFKLNDTLDYECHDGYESNTGSTTGSIVCGYNGWSDLPICYERECELPKIDVHLVPDRKKDQYKVGEVLKFSCKPGFTIVGPNSVQCYHFGLSPDLPICKEQVQSCGPPPELLNGNVKEKTKEEYGHSEVVEYYCNPRFLMKGPNKIQCVDGEWTTLPVCIVEESTCGDIPELEHGWAQLSSPPYYYGDSVEFNCSESFTMIGHRSITCIHGVWTQLPQCVAIDKLKKCKSSNLIILEEHLKNKKEFDHNSNIRYRCRGKEGWIHTVCINGRWDPEVNCSMAQIQLCPPPPQIPNSHNMTTTLNYRDGEKVSVLCQENYLIQEGEEITCKDGRWQSIPLCVEKIPCSQPPQIEHGTINSSRSSQESYAHGTKLSYTCEGGFRISEENETTCYMGKWSSPPQCEGLPCKSPPDISHGVVAHMSDSYQYGEEVTYKCFEGFGIDGPAIAKCLGEKWSHPPSCIKTDCLSLPSFENAIPMGEKKDVYKAGEQVTYTCATYYKMDGASNVTCINSRWTGRPTCRDTSCVNPPTVQNAYIVSRQMSKYPSGERVRYQCRSPYEMFGDEEVMCLNGNWTEPPQCKDSTGKCGPPPPIDNGDITSFPLSVYAPASSVEYQCQNLYQLEGNKRITCRNGQWSEPPKCLHPCVISREIMENYNIALRWTAKQKLYSRTGESVEFVCKRGYRLSSRSHTLRTTCWDGKLEYPTCAKR
modifications: N-glycans trimmed to the first GlcNAc residues (EndoHf)
notes: complement factor H (CFH), human, CCPs 1-20, allotypic variant Ile-62, Tyr-402, Asp-936; Expressed from the vector pPICZaB and secreted; also called I62,D936-CFH; IYD-CFH; source: P. pastoris KM71H, secreted, enzymatically deglycosylated, chromatographically purified
B2: R53H-CFH (on Ile-62 background) (natural protein, human, UniProt P08603 19-1231, looked up)
chain: EDCNELPPRRNTEILTGSWSDQTYPEGTQAIYKCHPGYRSLGNIIMVCRKGEWVALNPLRKCQKRPCGHPGDTPFGTFTLTGGNVFEYGVKAVYTCNEGYQLLGEINYRECDTDGWTNDIPICEVVKCLPVTAPENGKIVSSAMEPDREYHFGQAVRFVCNSGYKIEGDEEMHCSDDGFWSKEKPKCVEISCKSPDVINGSPISQKIIYKENERFQYKCNMGYEYSERGDAVCTESGWRPLPSCEEKSCDNPYIPNGDYSPLRIKHRTGDEITYQCRNGFYPATRGNTAKCTSTGWIPAPRCTLKPCDYPDIKHGGLYHENMRRPYFPVAVGKYYSYYCDEHFETPSGSYWDHIHCTQDGWSPAVPCLRKCYFPYLENGYNQNYGRKFVQGKSIDVACHPGYALPKAQTTVTCMENGWSPTPRCIRVKTCSKSSIDIENGFISESQYTYALKEKAKYQCKLGYVTADGETSGSITCGKDGWSAQPTCIKSCDIPVFMNARTKNDFTWFKLNDTLDYECHDGYESNTGSTTGSIVCGYNGWSDLPICYERECELPKIDVHLVPDRKKDQYKVGEVLKFSCKPGFTIVGPNSVQCYHFGLSPDLPICKEQVQSCGPPPELLNGNVKEKTKEEYGHSEVVEYYCNPRFLMKGPNKIQCVDGEWTTLPVCIVEESTCGDIPELEHGWAQLSSPPYYYGDSVEFNCSESFTMIGHRSITCIHGVWTQLPQCVAIDKLKKCKSSNLIILEEHLKNKKEFDHNSNIRYRCRGKEGWIHTVCINGRWDPEVNCSMAQIQLCPPPPQIPNSHNMTTTLNYRDGEKVSVLCQENYLIQEGEEITCKDGRWQSIPLCVEKIPCSQPPQIEHGTINSSRSSQESYAHGTKLSYTCEGGFRISEENETTCYMGKWSSPPQCEGLPCKSPPDISHGVVAHMSDSYQYGEEVTYKCFEGFGIDGPAIAKCLGEKWSHPPSCIKTDCLSLPSFENAIPMGEKKDVYKAGEQVTYTCATYYKMDGASNVTCINSRWTGRPTCRDTSCVNPPTVQNAYIVSRQMSKYPSGERVRYQCRSPYEMFGDEEVMCLNGNWTEPPQCKDSTGKCGPPPPIDNGDITSFPLSVYAPASSVEYQCQNLYQLEGNKRITCRNGQWSEPPKCLHPCVISREIMENYNIALRWTAKQKLYSRTGESVEFVCKRGYRLSSRSHTLRTTCWDGKLEYPTCAKR
modifications: N-glycans trimmed to the first GlcNAc residues (EndoHf)
notes: complement factor H (CFH), human, CCPs 1-20, aHUS-linked mutation R53H on the background Ile-62, Tyr-402, Asp-936; Expressed from the vector pPICZaB and secreted; the native signal peptide is probably absent; also called R53-CFH; source: P. pastoris KM71H, secreted, enzymatically deglycosylated, chromatographically purified
B3: S1191L/V1197A-CFH (LA-CFH, on Ile-62 background) (natural protein, human, UniProt P08603 19-1231, looked up)
chain: EDCNELPPRRNTEILTGSWSDQTYPEGTQAIYKCRPGYRSLGNIIMVCRKGEWVALNPLRKCQKRPCGHPGDTPFGTFTLTGGNVFEYGVKAVYTCNEGYQLLGEINYRECDTDGWTNDIPICEVVKCLPVTAPENGKIVSSAMEPDREYHFGQAVRFVCNSGYKIEGDEEMHCSDDGFWSKEKPKCVEISCKSPDVINGSPISQKIIYKENERFQYKCNMGYEYSERGDAVCTESGWRPLPSCEEKSCDNPYIPNGDYSPLRIKHRTGDEITYQCRNGFYPATRGNTAKCTSTGWIPAPRCTLKPCDYPDIKHGGLYHENMRRPYFPVAVGKYYSYYCDEHFETPSGSYWDHIHCTQDGWSPAVPCLRKCYFPYLENGYNQNYGRKFVQGKSIDVACHPGYALPKAQTTVTCMENGWSPTPRCIRVKTCSKSSIDIENGFISESQYTYALKEKAKYQCKLGYVTADGETSGSITCGKDGWSAQPTCIKSCDIPVFMNARTKNDFTWFKLNDTLDYECHDGYESNTGSTTGSIVCGYNGWSDLPICYERECELPKIDVHLVPDRKKDQYKVGEVLKFSCKPGFTIVGPNSVQCYHFGLSPDLPICKEQVQSCGPPPELLNGNVKEKTKEEYGHSEVVEYYCNPRFLMKGPNKIQCVDGEWTTLPVCIVEESTCGDIPELEHGWAQLSSPPYYYGDSVEFNCSESFTMIGHRSITCIHGVWTQLPQCVAIDKLKKCKSSNLIILEEHLKNKKEFDHNSNIRYRCRGKEGWIHTVCINGRWDPEVNCSMAQIQLCPPPPQIPNSHNMTTTLNYRDGEKVSVLCQENYLIQEGEEITCKDGRWQSIPLCVEKIPCSQPPQIEHGTINSSRSSQESYAHGTKLSYTCEGGFRISEENETTCYMGKWSSPPQCEGLPCKSPPDISHGVVAHMSDSYQYGEEVTYKCFEGFGIDGPAIAKCLGEKWSHPPSCIKTDCLSLPSFENAIPMGEKKDVYKAGEQVTYTCATYYKMDGASNVTCINSRWTGRPTCRDTSCVNPPTVQNAYIVSRQMSKYPSGERVRYQCRSPYEMFGDEEVMCLNGNWTEPPQCKDSTGKCGPPPPIDNGDITSFPLSVYAPASSVEYQCQNLYQLEGNKRITCRNGQWSEPPKCLHPCVISREIMENYNIALRWTAKQKLYLRTGESAEFVCKRGYRLSSRSHTLRTTCWDGKLEYPTCAKR
modifications: N-glycans trimmed to the first GlcNAc residues (EndoHf)
notes: complement factor H (CFH), human, CCPs 1-20, aHUS-linked double mutation S1191L/V1197A on the background Ile-62, Tyr-402, Asp-936; Expressed from the vector pPICZaB and secreted; the native signal peptide is probably absent; source: P. pastoris KM71H, secreted, enzymatically deglycosylated, chromatographically purified
B4: V62-CFH (recombinant human complement factor H, variant Val-62, Tyr-402, Glu-936) (natural protein, UniProt P08603 19-1231, looked up)
chain: EDCNELPPRRNTEILTGSWSDQTYPEGTQAIYKCRPGYRSLGNVIMVCRKGEWVALNPLRKCQKRPCGHPGDTPFGTFTLTGGNVFEYGVKAVYTCNEGYQLLGEINYRECDTDGWTNDIPICEVVKCLPVTAPENGKIVSSAMEPDREYHFGQAVRFVCNSGYKIEGDEEMHCSDDGFWSKEKPKCVEISCKSPDVINGSPISQKIIYKENERFQYKCNMGYEYSERGDAVCTESGWRPLPSCEEKSCDNPYIPNGDYSPLRIKHRTGDEITYQCRNGFYPATRGNTAKCTSTGWIPAPRCTLKPCDYPDIKHGGLYHENMRRPYFPVAVGKYYSYYCDEHFETPSGSYWDHIHCTQDGWSPAVPCLRKCYFPYLENGYNQNYGRKFVQGKSIDVACHPGYALPKAQTTVTCMENGWSPTPRCIRVKTCSKSSIDIENGFISESQYTYALKEKAKYQCKLGYVTADGETSGSITCGKDGWSAQPTCIKSCDIPVFMNARTKNDFTWFKLNDTLDYECHDGYESNTGSTTGSIVCGYNGWSDLPICYERECELPKIDVHLVPDRKKDQYKVGEVLKFSCKPGFTIVGPNSVQCYHFGLSPDLPICKEQVQSCGPPPELLNGNVKEKTKEEYGHSEVVEYYCNPRFLMKGPNKIQCVDGEWTTLPVCIVEESTCGDIPELEHGWAQLSSPPYYYGDSVEFNCSESFTMIGHRSITCIHGVWTQLPQCVAIDKLKKCKSSNLIILEEHLKNKKEFDHNSNIRYRCRGKEGWIHTVCINGRWDPEVNCSMAQIQLCPPPPQIPNSHNMTTTLNYRDGEKVSVLCQENYLIQEGEEITCKDGRWQSIPLCVEKIPCSQPPQIEHGTINSSRSSQESYAHGTKLSYTCEGGFRISEENETTCYMGKWSSPPQCEGLPCKSPPEISHGVVAHMSDSYQYGEEVTYKCFEGFGIDGPAIAKCLGEKWSHPPSCIKTDCLSLPSFENAIPMGEKKDVYKAGEQVTYTCATYYKMDGASNVTCINSRWTGRPTCRDTSCVNPPTVQNAYIVSRQMSKYPSGERVRYQCRSPYEMFGDEEVMCLNGNWTEPPQCKDSTGKCGPPPPIDNGDITSFPLSVYAPASSVEYQCQNLYQLEGNKRITCRNGQWSEPPKCLHPCVISREIMENYNIALRWTAKQKLYSRTGESVEFVCKRGYRLSSRSHTLRTTCWDGKLEYPTCAKR
modifications: N-glycans trimmed to the first GlcNAc residues (EndoHf)
notes: complement factor H (CFH), human, CCPs 1-20, allotypic variant Val-62, Tyr-402, Glu-936; Expressed from the vector pPICZaB and secreted; also called V62,E936-CFH; recombinant CFH; source: P. pastoris KM71H, secreted, enzymatically deglycosylated, chromatographically purified

What was measured:
C3b [1] = molecular target: T1, C3b (human, UniProt P01024 23-667; P01024 749-1663); experiment: SPR; C3b amine-coupled to a Biacore C1 chip; dilution series of CFH (from 2.5 to 0.019 uM), preincubated with or without a 2-fold molar excess of PspCN, flowed over; Biacore T200, 25 °C, 10 mM HEPES, 150 mM NaCl, 0.05% P20; 1:1 steady-state model; three experiments on different chips; conditions: both partners purified
T1 construct: Amine-coupled to the sensor chip; source: bought: Complement Technology (plasma-derived, human)
T1 sequence (P01024 23-667, chain 1 of 2): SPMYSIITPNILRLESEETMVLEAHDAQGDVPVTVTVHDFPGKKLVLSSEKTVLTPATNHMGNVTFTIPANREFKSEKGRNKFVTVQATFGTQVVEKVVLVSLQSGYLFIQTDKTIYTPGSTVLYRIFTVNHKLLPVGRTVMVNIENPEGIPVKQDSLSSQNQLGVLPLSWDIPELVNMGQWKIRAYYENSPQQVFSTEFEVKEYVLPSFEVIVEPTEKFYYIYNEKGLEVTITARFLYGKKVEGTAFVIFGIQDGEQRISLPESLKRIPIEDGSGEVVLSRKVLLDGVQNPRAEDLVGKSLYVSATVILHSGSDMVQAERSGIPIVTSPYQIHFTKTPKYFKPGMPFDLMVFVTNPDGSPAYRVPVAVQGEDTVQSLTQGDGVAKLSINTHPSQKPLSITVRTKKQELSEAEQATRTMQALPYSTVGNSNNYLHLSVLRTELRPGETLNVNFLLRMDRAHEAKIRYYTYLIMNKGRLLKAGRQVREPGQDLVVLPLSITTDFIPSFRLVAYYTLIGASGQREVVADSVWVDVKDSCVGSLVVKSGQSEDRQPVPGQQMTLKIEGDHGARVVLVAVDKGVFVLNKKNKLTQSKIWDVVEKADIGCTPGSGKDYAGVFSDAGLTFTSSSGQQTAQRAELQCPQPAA
T1 sequence (P01024 749-1663, chain 2 of 2): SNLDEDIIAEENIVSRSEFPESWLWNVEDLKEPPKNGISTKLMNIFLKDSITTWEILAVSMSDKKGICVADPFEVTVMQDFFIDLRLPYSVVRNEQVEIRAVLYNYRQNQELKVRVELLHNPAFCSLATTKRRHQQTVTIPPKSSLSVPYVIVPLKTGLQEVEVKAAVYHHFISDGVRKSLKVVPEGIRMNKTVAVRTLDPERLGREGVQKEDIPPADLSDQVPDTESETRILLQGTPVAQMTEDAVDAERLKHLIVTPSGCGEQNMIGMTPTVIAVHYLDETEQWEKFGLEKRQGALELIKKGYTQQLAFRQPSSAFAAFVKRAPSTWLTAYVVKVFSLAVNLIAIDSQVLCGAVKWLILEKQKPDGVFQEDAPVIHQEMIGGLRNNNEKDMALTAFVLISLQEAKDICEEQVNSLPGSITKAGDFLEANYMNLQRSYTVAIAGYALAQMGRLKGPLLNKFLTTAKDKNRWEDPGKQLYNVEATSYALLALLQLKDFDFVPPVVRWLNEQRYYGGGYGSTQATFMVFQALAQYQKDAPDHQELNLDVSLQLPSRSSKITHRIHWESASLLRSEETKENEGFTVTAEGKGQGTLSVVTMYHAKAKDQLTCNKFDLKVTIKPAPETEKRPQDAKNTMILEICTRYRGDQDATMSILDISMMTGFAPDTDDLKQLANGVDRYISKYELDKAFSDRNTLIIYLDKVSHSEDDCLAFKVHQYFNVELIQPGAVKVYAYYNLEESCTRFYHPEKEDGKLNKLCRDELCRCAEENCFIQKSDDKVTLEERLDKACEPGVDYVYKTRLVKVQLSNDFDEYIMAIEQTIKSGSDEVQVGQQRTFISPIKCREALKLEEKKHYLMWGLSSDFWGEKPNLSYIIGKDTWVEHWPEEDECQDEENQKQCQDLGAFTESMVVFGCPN

C3b [2] = molecular target: T1, C3b; experiment: as above; conditions: both partners purified; remark: listed apart in the source

Binder	Kd (C3b [1]) [nM]	Kd (C3b [2])
B1	1000 to 1300	
B2	1000	1200 nM and 1800 nM
B3		830 nM and 860 nM
B4		270 nM
